Residue numbers refer to the chain shown, from its start. Numbers in names are those of the source. One block for each binder: values may come before it.
Key:
[1] = molecular target: Non-muscle actin (actin filaments) (UniProt P60709 1-375); test: cell-based or functional assay
[2] = molecular target: the molecule itself; test: cell-based or functional assay

release of free phosphate (GTPase activity) by dynamin 2 (1.5 uM) with actin filaments (1 uM), 100 mM KCl, relative to that without actin [1]: 6 fold
B1: His-tagged rat dynamin 2-WT (enzyme, UniProt P39052 1-870, looked up)
chain: MGNRGMEELIPLVNKLQDAFSSIGQSCHLDLPQIAVVGGQSAGKSSVLENFVGRDFLPRGSGIVTRRPLILQLIFSKTEYAEFLHCKSKKFTDFDEVRQEIEAETDRVTGTNKGISPVPINLRVYSPHVLNLTLIDLPGITKVPVGDQPPDIEYQIKDMILQFISRESSLILAVTPANMDLANSDALKLAKEVDPQGLRTIGVITKLDLMDEGTDARDVLENKLLPLRRGYIGVVNRSQKDIEGRKDIRAALAAERKFFLSHPAYRHMADRMGTPHLQKTLNQQLTNHIRESLPTLRSKLQSQLLSLEKEVEEYKNFRPDDPTRKTKALLQMVQQFGVDFEKRIEGSGDQVDTLELSGGARINRIFHERFPFELVKMEFDEKDLRREISYAIKNIHGVRTGLFTPDLAFEAIVKKQVVKLKEPCLKCVDLVIQELISTVRQCTSKLSSYPRLREETERIVTTYIREREGRTKDQILLLIDIEQSYINTNHEDFIGFANAQQRSTQLNKKRAIPNQGEILVIRRGWLTINNISLMKGGSKEYWFVLTAESLSWYKDEEEKEKKYMLPLDNLKIRDVEKGFMSNKHVFAIFNTEQRNVYKDLRQIELACDSQEDVDSWKASFLRAGVYPEKDQAENEDGAQENTFSMDPQLERQVETIRNLVDSYVAIINKSIRDLMPKTIMHLMINNTKAFIHHELLAYLYSSADQSSLMEESAEQAQRRDDMLRMYHALKEALNIIGDISTSTVSTPVPPPVDDTWLQNTSSHSPTPQRRPVSSVHPPGRPPAVRGPTPGPPLIPMPVGATSSFSAPPIPSRPGPQNVFANNDPFSAPPQIPSRPARIPPGIPPGVPSRRAPAAPSRPTIIRPAEPSLLD

release of free phosphate (GTPase activity) by dynamin 2 (1.5 uM) with actin filaments (1 uM), 100 mM KCl, relative to that without actin [1]: 4 fold
B2: His-tagged rat dynamin 2-K562E (enzyme, UniProt P39052 1-870, looked up)
chain: B1 chain with K562E
GTPase activity under low ionic strength buffer, relative to dynamin 2-WT [2]: ~0.33 of dynamin 2-WT
